Assays:
[1] = target: T1, CXCR2 (interleukin 8 receptor beta chain) (human, UniProt P25025 1-360); assay: flow cytometry, GFP-toxin on primary human PMNs (CXCR1/CXCR2+ cells)
T1 construct: whole, on cells
T1 sequence: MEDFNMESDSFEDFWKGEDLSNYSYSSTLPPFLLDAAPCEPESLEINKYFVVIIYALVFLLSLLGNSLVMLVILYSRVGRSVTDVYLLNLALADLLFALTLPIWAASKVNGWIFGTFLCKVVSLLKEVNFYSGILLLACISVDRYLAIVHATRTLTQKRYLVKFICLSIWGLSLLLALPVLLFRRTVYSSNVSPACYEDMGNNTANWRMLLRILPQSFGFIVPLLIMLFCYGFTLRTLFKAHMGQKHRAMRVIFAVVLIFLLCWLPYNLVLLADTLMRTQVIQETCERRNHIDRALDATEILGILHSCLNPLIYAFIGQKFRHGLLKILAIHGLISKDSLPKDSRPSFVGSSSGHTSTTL

[2] = target: T2, CXCR1 (interleukin 8 receptor alpha chain) (human, UniProt P25024 1-350); assay: as above
T2 construct: whole, on cells
T2 sequence: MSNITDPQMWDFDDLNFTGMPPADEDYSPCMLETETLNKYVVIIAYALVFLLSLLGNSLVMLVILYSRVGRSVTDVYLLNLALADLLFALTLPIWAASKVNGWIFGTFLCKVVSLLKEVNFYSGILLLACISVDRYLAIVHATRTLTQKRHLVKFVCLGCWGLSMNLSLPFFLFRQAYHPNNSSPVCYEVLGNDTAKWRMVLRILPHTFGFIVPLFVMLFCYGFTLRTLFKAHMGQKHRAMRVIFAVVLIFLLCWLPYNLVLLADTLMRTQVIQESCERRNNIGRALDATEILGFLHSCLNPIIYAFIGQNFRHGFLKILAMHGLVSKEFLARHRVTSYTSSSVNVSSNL

[3] = target: T1, CXCR2 (interleukin 8 receptor beta …); assay: legend of FIGS. 6A-6E: flow cytometry on PMNs and pulldown
[4] = target: T2, CXCR1 (interleukin 8 receptor alpha …); assay: as above

B1: GFP-LukE (green fluorescent protein-fused LukE) (other)
chain: NTNIENIGDGAEVIKRTEDVSSKKWGVTQNVQFDFVKDKKYNKDALIVKMQGFINSRTSFSDVKGSGYELTKRMIWPFQYNIGLTTKDPNVSLINYLPKNKIETTDVGQTLGYNIGGNFQSAPSIGGNGSFNYSKTISYTQKSYVSEVDKQNSKSVKWGVKANEFVTPDGKKSAHDRYLFVQSPNGPTGSAREYFAPDNQLPPLVQSGFNPSFITTLSHEKGSSDTSEFEISYGRNLDITYATLFPRTGIYAERKHNAFVNRNFVVRYEVNWKTHEIKVKGHN
notes: also called LukE-GFP
binding result [1]: binds
binding result [2]: binds

B2: His-LukE (N-terminal 6xHis-tagged Leukocidin E, S. aureus Newman) (other)
chain: NTNIENIGDGAEVIKRTEDVSSKKWGVTQNVQFDFVKDKKYNKDALIVKMQGFINSRTSFSDVKGSGYELTKRMIWPFQYNIGLTTKDPNVSLINYLPKNKIETTDVGQTLGYNIGGNFQSAPSIGGNGSFNYSKTISYTQKSYVSEVDKQNSKSVKWGVKANEFVTPDGKKSAHDRYLFVQSPNGPTGSAREYFAPDNQLPPLVQSGFNPSFITTLSHEKGSSDTSEFEISYGRNLDITYATLFPRTGIYAERKHNAFVNRNFVVRYEVNWKTHEIKVKGHN
binding result [3]: binds
binding result [4]: binds

Reference: patent publication US20190248876A1 (NEW YORK UNIVERSITY, published 2019)
